Results as given in patent US20200270347A1 (Hoffmann-La Roche, published 2020).
Changes are numbered by the printed parent chain. Numbers in names are those of the source.

B1: TYRP1 TCB CD3opt (bispecific antibody, human IgG1, kappa, L234A L235A)
heavy 1: not shown
heavy 2: QVQLVQSGAEVKKPGASVKVSCKASGFNIKDYFLHWVRQAPGQGLEWMGWINPDNGNTVYAQKFQGRVTMTADTSTSTVYMELSSLRSEDTAVYYCTRRDYTYEKAALDYWGQGTLVTVSSASTKGPSVFPLAPSSKSTSGGTAALGCLVEDYFPEPVTVSWNSGALTSGVHTFPAVLQSSGLYSLSSVVTVPSSSLGTQTYICNVNHKPSNTKVDEKVEPKSCDKTHTCPPCPAPEAAGGPSVFLFPPKPKDTLMISRTPEVTCVVVDVSHEDPEVKFNWYVDGVEVHNAKTKPREEQYNSTYRVVSVLTVLHQDWLNGKEYKCKVSNKALGAPIEKTISKAKGQPREPQVCTLPPSRDELTKNQVSLSCAVKGFYPSDIAVEWESNGQPENNYKTTPPVLDSDGSFFLVSKLTVDKSRWQQGNVFSCSVMHEALHNHYTQKSLSLSP
light 1: DIQMTQSPSSLSASVGDRVTITCRASGNIYNYLAWYQQKPGKVPKLLIYDAKTLADGVPSRFSGSGSGTDFTLTISSLQPEDVATYYCQHFWSLPFTFGQGTKLEIKRTVAAPSVFIFPPSDRKLKSGTASVVCLLNNFYPREAKVQWKVDNALQSGNSQESVTEQDSKDSTYSLSSTLTLSKADYEKHKVYACEVTHQGLSSPVTKSFNRGEC
light 2: EVQLLESGGGLVQPGGSLRLSCAASGFQFSSYAMNWVRQAPGKGLEWVSRIRSKYNNYATYYADSVKGRFTISRDDSKNTLYLQMNSLRAEDTAVYYCVRHTTFPSSYVSYYGYWGQGTLVTVSSASVAAPSVFIFPPSDEQLKSGTASVVCLLNNFYPREAKVQWKVDNALQSGNSQESVTEQDSKDSTYSLSSTLTLSKADYEKHKVYACEVTHQGLSSPVTKSFNRGEC
notes: two TYRP1 Fabs, one CD3opt crossover Fab
B2: TYRP1 TCB CD3orig (bispecific antibody, human IgG1, kappa, L234A L235A)
heavy 1: not shown
heavy 2: B1 heavy 2
light 1: B1 light 1
light 2: B1 light 2 with Q28T, S31T, T102G, T103N, P105G, S106N, Y111W, Y112F, G113A
notes: 2+1 IgG CrossFab, inverted, with charge modifications
B3: CD3opt human IgG1 PGLALA (antibody, V domains shown)
VH: EVQLLESGGGLVQPGGSLRLSCAASGFQFSSYAMNWVRQAPGKGLEWVSRIRSKYNNYATYYADSVKGRFTISRDDSKNTLYLQMNSLRAEDTAVYYCVRHTTFPSSYVSYYGYWGQGTLVTVSS
VL: QAVVTQEPSLTVSPGGTVTLTCGSSTGAVTTSNYANWVQEKPGQAFRGLIGGTNKRAPGTPARFSGSLLGGKAALTLSGAQPEDEAEYYCALWYSNLWVFGGGTKLTVLR
notes: Human IgG1 format with P329G L234A L235A (PGLALA); also called CD3opt IgG PGLALA
B4: CD3orig human IgG1 PGLALA (antibody, V domains shown)
VH: not shown
VL: B3 VL
notes: Human IgG1 format with P329G L234A L235A (PGLALA) in the Fc by the text; also called CD3orig IgG PGLALA
B5: TYRP1 IgG (antibody, V domains shown)
VH: QVQLVQSGAEVKKPGASVKVSCKASGFNIKDYFLHWVRQAPGQGLEWMGWINPDNGNTVYAQKFQGRVTMTADTSTSTVYMELSSLRSEDTAVYYCTRRDYTYEKAALDYWGQGTLVTVSS
VL: DIQMTQSPSSLSASVGDRVTITCRASGNIYNYLAWYQQKPGKVPKLLIYDAKTLADGVPSRFSGSGSGTDFTLTISSLQPEDVATYYCQHFWSLPFTFGQGTKLEIK
notes: IgG format; constant regions not specified
B6: EGFRvIII antibody P063.056 IgG1 PGLALA (antibody, V domains shown)
VH: EVQLVQSGAEVKKPGESLKISCKGSGYSFDSYWIAWVRQMPGKGLEWMGVIHPYDSDTRYSPSFQGQVTISADKSISTAYLQWSSLKASDTAMYYCARVSRSSYAFDYWGQGTLVTVSS
VL: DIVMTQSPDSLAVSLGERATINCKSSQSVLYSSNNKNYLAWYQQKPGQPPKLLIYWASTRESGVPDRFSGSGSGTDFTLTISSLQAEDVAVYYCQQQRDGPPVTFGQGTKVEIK
notes: Anti-EGFRvIII PGLALA IgG (human IgG1)
B7: EGFRvIII antibody P064.078 IgG1 PGLALA (antibody, V domains shown)
VH: B6 VH with S102L, F106L
VL: not shown
notes: as for B6
B8: EGFRvIII antibody P065.036 IgG1 PGLALA (antibody, V domains shown)
VH: B6 VH with F106L
VL: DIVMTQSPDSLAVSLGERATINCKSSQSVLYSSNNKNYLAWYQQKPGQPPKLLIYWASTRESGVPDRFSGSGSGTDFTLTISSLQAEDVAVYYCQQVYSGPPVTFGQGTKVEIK
notes: as for B6
B9: TYRP1 Fab fragment (humanized TA99 TYRP1 binder) (Fab, V domains shown)
VH: B5 VH
VL: B5 VL
notes: Fab prepared by plasmin digestion of the corresponding antibody; also called TYRP1 Fab fragments

Tests used:
[1] = molecular target: T1, recombinant TYRP1 (Sino Biologicals) (human, UniProt P17643 25-477, limits assumed); assay: SPR, relative active concentration as for CD3, with recombinant TYRP1 (Sino Biologicals) as antigen; sample: unstressed
T1 construct: Bought protein; also called human TYRP1

[2] = molecular target: T2, heterodimer of human CD3 delta and CD3 epsilon ectodomains fused to a human Fc domain with knob-into-hole … (human); assay: SPR, relative active concentration after stress
T2 construct: Each entry is the whole fusion chain (ectodomain, stalk, Fc, Avi-tag); also called recombinant CD3; recombinant human CD3

[3] = molecular target: T1, recombinant TYRP1 (Sino Biologicals); assay: SPR, relative active concentration as for CD3, with recombinant TYRP1 (Sino Biologicals) as antigen; sample: 14d pH 6.0, 40°C
[4] = molecular target: T1, recombinant TYRP1 (Sino Biologicals); assay: SPR, relative active concentration as for CD3, with recombinant TYRP1 (Sino Biologicals) as antigen; sample: 14d pH 7.4, 37°C
[5] = molecular target: TYRP1 on the melanoma cell line M150543 (human, UniProt P17643 25-537); assay: cell-based or functional assay
[6] = molecular target: T3, heterodimer of cynomolgus CD3 delta and CD3 epsilon ectodomains fused to a human Fc domain with … (cynomolgus); assay: SPR, TCB captured with anti-PGLALA antibody, CD3 antigen as analyte, 1:1 Langmuir
T3 construct: Each entry is the whole fusion chain; also called Cynomolgus CD3 epsilon stalk-Fc(knob)-Avi / Cynomolgus CD3 delta stalk-Fc(hole)-Avi

[7] = molecular target: T2, heterodimer of human CD3 delta and CD3 …; assay: as above
[8] = molecular target: T4, human CD3 expressed on Jurkat NFAT reporter cells (human, UniProt P07766 23-207); assay: flow cytometry on Jurkat NFAT cells, PE-labelled anti-human Fc secondary antibody
T4 construct: CD3 complex on cells; also called CD3 on Jurkat cells; CD3 expressing cells

EGFRvIII-ECD avi his [9] = molecular target: T5, EGFRvIII-ECD avi his (human); assay: SPR, PGLALA IgG captured with anti-PGLALA antibody, EGFRvIII-ECD avi his as analyte, 1:1 Langmuir, 25° C.
T5 construct: Extracellular domain of human EGFRvIII fused to an Avi-tag and a His-tag at the C-terminus; the entry is the whole construct; also called recombinant EGFRvIII; EGFRvIII antigen

[10] = molecular target: T6, wild-type EGFR on MKN-45 cells (human, UniProt P00533 25-1210); assay: flow cytometry on MKN-45 cells (wild-type EGFR), IgG PGLALA
T6 construct: MKN-45 is the wild-type EGFR line used to exclude crossreactivity; also called EGFRwt

EGFRvIII-ECD avi his [11] = molecular target: T5, EGFRvIII-ECD avi his; assay: SPR, ECD antigen captured with anti-His, single injection of antibody at 500 nM
[12] = molecular target: EGFRwt ECD antigen (His-tagged, captured with anti-His) (human, UniProt P00533 25-645); assay: as above
[13] = molecular target: T7, EGFRvIII expressed on the cell surface (CHO-EGFRvIII, DK-MG, U87MG-EGFRvIII cells) (human, UniProt P00533 298-1210); assay: flow cytometry on U87MG-EGFRvIII cells, IgG PGLALA
T7 construct: The cell line of each result is named under assay; Species is stated for the U87 transfectant (human EGFRvIII protein) and the entry; also called EGFRvIII positive cells

[14] = molecular target: T8, Human TYRP1 ECD-Fc(knob)-Avi / Fc(hole) (human, UniProt P01857 104-328 = IgG part); assay: SPR, TYRP1 ECD-Fc captured with anti-PGLALA antibody, Fab as analyte, 1:1 Langmuir; human TYRP1
T8 construct: Fc with knob-into-hole and PG LALA modifications, C-terminal Avi-tag; also called monomeric fusion of the human TYRP1 extracellular domain to a human Fc-domain

[15] = molecular target: Cynomolgus TYRP1 ECD-Fc(knob)-Avi / Fc(hole) (cynomolgus, UniProt P01857 104-328 = IgG part); assay: SPR, TYRP1 ECD-Fc captured with anti-PGLALA antibody, Fab as analyte, 1:1 Langmuir; cynomolgus TYRP1
[16] = molecular target: Mouse TYRP1 ECD-Fc(knob)-Avi / Fc(hole) (mouse, UniProt P01857 104-328 = IgG part); assay: SPR, TYRP1 ECD-Fc captured with anti-PGLALA antibody, Fab as analyte, 1:1 Langmuir; mouse TYRP1

T4 sequence (P07766 23-207 limits assumed): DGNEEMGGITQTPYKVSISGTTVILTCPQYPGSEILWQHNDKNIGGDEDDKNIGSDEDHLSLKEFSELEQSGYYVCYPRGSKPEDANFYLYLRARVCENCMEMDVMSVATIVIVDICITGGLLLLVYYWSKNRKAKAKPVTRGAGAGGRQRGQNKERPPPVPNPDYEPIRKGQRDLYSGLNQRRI

Binder | Tyrp1 Binding Activity (%) [1] [%] | Tyrp1 Binding Activity (%) [3] [%] | Tyrp1 Binding Activity (%) [4] [%] | Kd (EGFRvIII-ECD avi his [9]) [nM] | response units (EGFRvIII-ECD avi his [11]) [RU] | response units [12] [RU] | other results
B1 | 100 | 101 | 101 | – | – | – | binding activity to CD3 after 2 weeks at pH 7.4, 37° C., relative to 2 weeks at pH 6, -80° C. [2]: > 90%; EC50 of tumor cell killing at 48 h (LDH release), PBMC donor 1 [5]: 0.31 nM; EC50 of tumor cell killing at 48 h (LDH release), PBMC donor 2 [5]: 0.03 nM; EC50 of tumor cell killing at 48 h (LDH release), PBMC donor 3 [5]: 0.08 nM; Kd [6]: 20 nM; Kd [7]: 50 nM
B2 | 100 | 98 | 103 | – | – | – | EC50 of tumor cell killing at 48 h (LDH release), PBMC donor 1 [5]: 0.44 nM; EC50 of tumor cell killing at 48 h (LDH release), PBMC donor 2 [5]: 0.05 nM; EC50 of tumor cell killing at 48 h (LDH release), PBMC donor 3 [5]: 0.14 nM; Kd [7]: 50 nM
B3 | – | – | – | – | – | – | binding activity to CD3 after 2 weeks at pH 7.4, 37° C., relative to 2 weeks at pH 6, -80° C. [2]: > 90%; EC50 (read off the curve) [8]: ~0.5 nM
B4 | – | – | – | – | – | – | EC50 (read off the curve) [8]: ~0.8 nM
B5 | 100 | 97 | 101 | – | – | – | –
B6 | – | – | – | 10 | > 50 | < 5 | binding result [10]: no binding (tested: about 140 nM)
B7 | – | – | – | 15 | > 50 | > 5 | EC50 (read off the curve) [13]: ~3 nM
B8 | – | – | – | 10 | > 50 | > 5 | –
B9 | – | – | – | – | – | – | Kd [14]: 0.13 nM; Kd [15]: 0.18 nM; Kd [16]: 0.53 nM
